How the values were obtained:
[1] = target: T1, human LTBP1-proTGFβ1 complex (human, UniProt Q14766 873-1507); assay: MSD-SET solution equilibrium titration; Ab6 titrated against biotinylated hLTBP1-proTGFβ1, readout % free antigen
T1 construct: range 873-1507; biotinylated in Octet and MSD-SET; also called hLTBP1-proTGFβ1; hLTBP1
Description: (§1) MSD-SET assays were performed to measure affinities of the antibodies at equilibrium. Briefly, each test antibody was diluted 3-5 fold and samples were mixed with biotinylated antigen in a 48-well dish. The SET samples were equilibrated for 20-24 hours at room temperature. Meanwhile, a capture plate was coated with IgG (20 nM) and incubated overnight at 4° C. or 30 minutes at room temperature, followed by a blocking step with 5% BSA. After the capture plate was washed three times, SET samples were added and incubated for 150 seconds. The plate was washed once to remove unbound complexes. 250 ng/ml SA-Sulfotag was added then washed 3 times. 2× Read Buffer was added, and signals from the labeled bound complexes were read with the use of QuickPlex™ SQ 120 instrument.
(§2) As an example, MSD standard plates (MSD) were coated with a 20 nM solution of monoclonal antibody in PBS for 30 min at room temperature or overnight at 4° C. […] After 20-24 hours of equilibration, the antibody-coated plate was blocked with Blocking Buffer A (MSD) for 30 minutes at room temperature and washed with wash buffer (PBS, 0.1% BSA, 0.05% Tween-20) before adding the equilibrated antibody-antigen complexes to the plate for exactly 2.5 minutes. […] After washing with wash buffer, plates were read in MSD read buffer (MSD) using the MESO QuickPlex SQ 120 (MSD). […]

[2] = target: hLTBP1-proTGFβ1 complex made by transfected cells (cell-based potency assay) (human, UniProt Q14766 347-1721; P01137 30-390); assay: cell-based or functional assay
[3] = target: hGARP-proTGFβ1 complex on cells (human, UniProt Q14392 20-662; P01137 30-390); assay: cell-based or functional assay
[4] = target: T2, human mature TGFβ1 growth factor (human, UniProt P01137 279-390); assay: in vitro binding assay
T2 construct: Bought from R&D Systems; also called active (mature) TGFβ1 growth factor; free TGFβ1 growth factor

[5] = target: T1, human LTBP1-proTGFβ1 complex; assay: MSD-SET, solution equilibrium titration
Description: as §1
(§3) As an example, MSD standard plates (MSD) were coated with a 20 nM solution of monoclonal antibody in PBS for 30 min at room temperature or overnight at 4° C. […] After 20-24 hours of equilibration, the antibody-coated plate was blocked with Blocking Buffer A (MSD) for 30 minutes at room temperature and washed with wash buffer (PBS, 0.1% BSA, 0.05% Tween-20) before adding the equilibrated antibody-antigen complexes to the plate for exactly 2.5 minutes. The plate was washed again with wash buffer before adding 250 ng/ml SULFO-TAG-labeled streptavidin secondary reagent (MSD) in PBS with 0.1% BSA. After washing with wash buffer, plates were read in MSD read buffer (MSD) using the MESO QuickPlex SQ 120 (MSD). The binding data were processed by nonlinear curve fitting in Prism 7 software (Graphpad) to calculate equilibrium binding KD values.

[6] = target: T3, human LTBP3-proTGFβ1 complex (human, UniProt Q9NS15 866-1039); assay: MSD-SET, solution equilibrium titration
T3 construct: range 866-1039; also called hLTBP3-proTGFβ1; hLTBP3
Description: as §1, §3

[7] = target: T4, murine LRRC33-proTGFβ1 complex (mouse, UniProt Q8BMT4 20-651, limits assumed); assay: MSD-SET, solution equilibrium titration
T4 construct: also called mLRRC33-proTGFβ1
Description: as §1, §3

[8] = target: T5, murine LTBP3-proTGFβ1 complex (mouse, UniProt Q61810 41-1245; P04202 30-390, limits assumed); assay: MSD-SET, solution equilibrium titration
T5 construct: also called mLTBP3-proTGFβ1
Description: as §1, §3

[9] = target: T6, murine LTBP1-proTGFβ1 complex (mouse, UniProt Q8CG19 339-1712; P04202 30-390, limits assumed); assay: MSD-SET, solution equilibrium titration
T6 construct: also called mLTBP1-proTGFβ1
Description: as §1, §3

[10] = target: T7, human LRRC33-proTGFβ1 complex (human, UniProt Q86YC3 19-650; P01137 30-390); assay: MSD-SET, solution equilibrium titration
T7 construct: also called hLRRC33-proTGFβ1; hLRRC33
Description: as §1, §3

[11] = target: T8, murine GARP-proTGFβ1 complex (mouse, UniProt G3XA59 18-628; P04202 30-390); assay: MSD-SET, solution equilibrium titration
T8 construct: Soluble murine complex; also called mGARP-proTGFβ1
Description: as §1, §3

[12] = target: T9, human GARP-proTGFβ1 complex (human, UniProt Q14392 20-627; P01137 30-390); assay: MSD-SET, solution equilibrium titration
T9 construct: also called hGARP-proTGFβ1; hGARP
Description: as §1, §3

human proTGFβ1 C4S = target: T10, human proTGFβ1 C4S (human, UniProt P01137 30-390); assay: method not described
T10 construct: Small latent complex without presenting molecule; the cysteine that links to presenting molecules is changed to serine; also called small latent complex proTGFβ1 C4S; latent TGFβ1

[13] = target: T11, human mature TGFβ2 growth factor (human, UniProt P61812 303-414); assay: in vitro binding assay (BLI protocol at p-1008)
T11 construct: mature
T11 sequence (looked up): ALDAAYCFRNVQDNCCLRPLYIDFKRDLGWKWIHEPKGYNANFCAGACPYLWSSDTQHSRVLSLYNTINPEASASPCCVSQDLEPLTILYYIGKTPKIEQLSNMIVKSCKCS
Description: (§4) AR2G biosensors were first allowed to hydrate in water offline for at least 10 minutes before initiation of the experiment. Upon initiation of the experiment, AR2G tips were equilibrated in water for 1 minute. Then, the tips were moved into a freshly prepared activation solution (18 parts water, 1 part 400 mM EDC (1-Ethyl-3-[3-dimethylaminopropyl] carbodiimide hydrochloride), and 1 part 200 mM sulfo-NHS (N-hydroxysulfosuccinimide)) for 5 minutes. Recombinant TGFβ protein (10 ug/mL in 10 mM sodium acetate buffer pH 5) was coupled to the activated tips for 3 minutes before quenching with ethanolamine pH 8.5 for 15 minutes. […] Finally, a ten minute dissociation was performed.

[14] = target: T12, human mature TGFβ3 growth factor (human, UniProt P10600 301-412); assay: in vitro binding assay (BLI protocol at p-1008)
T12 construct: mature
T12 sequence (looked up): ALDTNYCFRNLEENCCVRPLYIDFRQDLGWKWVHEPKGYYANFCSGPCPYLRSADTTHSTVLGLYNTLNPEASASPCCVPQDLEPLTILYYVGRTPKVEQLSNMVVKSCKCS
Description: as §4

[15] = target: T9, human GARP-proTGFβ1 complex; assay: MSD-SET solution equilibrium titration; Ab6 titrated against biotinylated hGARP-proTGFβ1, readout % free antigen
Description: as §1, §2

[16] = target: T3, human LTBP3-proTGFβ1 complex; assay: MSD-SET solution equilibrium titration; Ab6 titrated against biotinylated hLTBP3-proTGFβ1, readout % free antigen
Description: as §1, §2

T9 sequence (Q14392 20-627, chain 1 of 2): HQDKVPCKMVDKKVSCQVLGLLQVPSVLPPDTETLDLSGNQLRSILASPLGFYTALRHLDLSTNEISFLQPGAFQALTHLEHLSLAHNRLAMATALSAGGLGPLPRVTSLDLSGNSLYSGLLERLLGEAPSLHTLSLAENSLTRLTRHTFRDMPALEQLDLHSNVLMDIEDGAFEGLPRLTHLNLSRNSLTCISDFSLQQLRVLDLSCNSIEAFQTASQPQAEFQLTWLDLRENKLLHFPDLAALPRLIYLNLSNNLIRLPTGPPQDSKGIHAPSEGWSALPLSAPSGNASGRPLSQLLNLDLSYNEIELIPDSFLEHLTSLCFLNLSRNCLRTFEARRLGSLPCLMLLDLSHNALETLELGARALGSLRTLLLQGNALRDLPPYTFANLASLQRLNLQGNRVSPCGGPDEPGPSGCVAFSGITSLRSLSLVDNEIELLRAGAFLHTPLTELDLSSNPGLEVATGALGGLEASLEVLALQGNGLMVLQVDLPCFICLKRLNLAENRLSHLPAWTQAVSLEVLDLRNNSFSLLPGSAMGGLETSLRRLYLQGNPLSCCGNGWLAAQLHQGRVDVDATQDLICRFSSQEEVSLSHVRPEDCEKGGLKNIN
T9 sequence (P01137 30-390, chain 2 of 2): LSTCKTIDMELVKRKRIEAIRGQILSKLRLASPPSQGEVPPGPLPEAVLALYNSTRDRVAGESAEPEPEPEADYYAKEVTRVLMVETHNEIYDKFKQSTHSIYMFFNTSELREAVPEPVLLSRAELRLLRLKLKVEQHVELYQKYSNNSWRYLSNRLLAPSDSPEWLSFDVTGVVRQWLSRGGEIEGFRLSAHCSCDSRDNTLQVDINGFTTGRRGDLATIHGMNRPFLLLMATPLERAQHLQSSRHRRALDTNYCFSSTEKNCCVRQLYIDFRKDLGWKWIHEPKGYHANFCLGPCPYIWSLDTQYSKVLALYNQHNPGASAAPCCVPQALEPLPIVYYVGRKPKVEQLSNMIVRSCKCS
T1 sequence (Q14766 873-1507 limits assumed, chain 1 of 2): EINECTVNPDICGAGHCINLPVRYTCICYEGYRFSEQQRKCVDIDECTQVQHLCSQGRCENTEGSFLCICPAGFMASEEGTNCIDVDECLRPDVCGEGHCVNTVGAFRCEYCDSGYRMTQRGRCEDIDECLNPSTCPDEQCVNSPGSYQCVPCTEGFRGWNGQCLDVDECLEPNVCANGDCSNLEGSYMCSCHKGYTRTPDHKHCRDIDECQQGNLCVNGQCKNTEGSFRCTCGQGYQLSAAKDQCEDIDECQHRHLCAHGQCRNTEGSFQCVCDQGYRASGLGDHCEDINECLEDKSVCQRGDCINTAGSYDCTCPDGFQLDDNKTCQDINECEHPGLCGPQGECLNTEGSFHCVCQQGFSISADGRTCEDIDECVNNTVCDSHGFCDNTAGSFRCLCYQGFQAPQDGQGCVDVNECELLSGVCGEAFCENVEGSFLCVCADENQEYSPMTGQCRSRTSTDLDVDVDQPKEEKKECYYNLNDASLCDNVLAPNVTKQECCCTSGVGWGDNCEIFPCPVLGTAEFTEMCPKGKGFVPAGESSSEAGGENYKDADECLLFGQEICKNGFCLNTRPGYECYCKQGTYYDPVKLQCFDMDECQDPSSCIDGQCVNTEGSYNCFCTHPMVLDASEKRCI
T1 sequence (chain, as listed by the source limits assumed, chain 2 of 2): as the sequence (P01137 30-390, chain 2 of 2) above
T3 sequence (Q9NS15 866-1039 limits assumed, chain 1 of 2): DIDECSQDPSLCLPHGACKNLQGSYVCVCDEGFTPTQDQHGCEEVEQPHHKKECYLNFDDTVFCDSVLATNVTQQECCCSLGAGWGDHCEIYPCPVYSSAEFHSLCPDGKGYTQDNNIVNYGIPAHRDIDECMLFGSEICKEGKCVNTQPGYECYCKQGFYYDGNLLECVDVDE
T3 sequence (chain, as listed by the source limits assumed, chain 2 of 2): as the sequence (P01137 30-390, chain 2 of 2) above
T2 sequence (P01137 279-390 limits assumed): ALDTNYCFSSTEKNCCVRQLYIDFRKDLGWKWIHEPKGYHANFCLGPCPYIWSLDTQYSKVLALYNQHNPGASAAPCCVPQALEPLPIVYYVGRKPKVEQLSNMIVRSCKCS
T8 sequence (G3XA59 18-628, chain 1 of 2): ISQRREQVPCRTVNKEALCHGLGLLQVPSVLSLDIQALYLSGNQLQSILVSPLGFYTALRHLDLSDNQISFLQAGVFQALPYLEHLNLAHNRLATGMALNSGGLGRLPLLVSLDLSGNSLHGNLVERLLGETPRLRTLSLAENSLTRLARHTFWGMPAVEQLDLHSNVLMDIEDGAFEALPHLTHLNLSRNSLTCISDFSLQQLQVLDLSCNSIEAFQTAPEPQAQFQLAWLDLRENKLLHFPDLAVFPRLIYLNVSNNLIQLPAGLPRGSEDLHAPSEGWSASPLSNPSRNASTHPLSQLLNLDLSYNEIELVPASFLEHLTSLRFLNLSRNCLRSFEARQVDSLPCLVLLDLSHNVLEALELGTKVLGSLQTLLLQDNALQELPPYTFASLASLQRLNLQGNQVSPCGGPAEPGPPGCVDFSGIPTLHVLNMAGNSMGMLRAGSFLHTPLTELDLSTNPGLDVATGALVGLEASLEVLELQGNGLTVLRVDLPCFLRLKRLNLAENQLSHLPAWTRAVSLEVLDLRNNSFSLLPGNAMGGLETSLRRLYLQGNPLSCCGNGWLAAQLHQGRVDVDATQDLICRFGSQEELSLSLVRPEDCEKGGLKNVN
T8 sequence (P04202 30-390, chain 2 of 2): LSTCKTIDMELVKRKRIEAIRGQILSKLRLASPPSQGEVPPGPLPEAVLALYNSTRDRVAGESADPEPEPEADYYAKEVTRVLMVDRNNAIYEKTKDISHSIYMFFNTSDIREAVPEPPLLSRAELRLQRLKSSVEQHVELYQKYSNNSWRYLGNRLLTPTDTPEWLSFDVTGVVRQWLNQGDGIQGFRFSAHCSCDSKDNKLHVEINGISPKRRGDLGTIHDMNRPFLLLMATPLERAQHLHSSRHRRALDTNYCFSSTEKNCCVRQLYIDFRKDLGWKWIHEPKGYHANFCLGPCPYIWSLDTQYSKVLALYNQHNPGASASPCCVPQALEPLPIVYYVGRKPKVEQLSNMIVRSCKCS
Chain of hLTBP1-proTGFβ1 complex made by transfected cells (cell-based potency assay) (Q14766 347-1721, chain 1 of 2): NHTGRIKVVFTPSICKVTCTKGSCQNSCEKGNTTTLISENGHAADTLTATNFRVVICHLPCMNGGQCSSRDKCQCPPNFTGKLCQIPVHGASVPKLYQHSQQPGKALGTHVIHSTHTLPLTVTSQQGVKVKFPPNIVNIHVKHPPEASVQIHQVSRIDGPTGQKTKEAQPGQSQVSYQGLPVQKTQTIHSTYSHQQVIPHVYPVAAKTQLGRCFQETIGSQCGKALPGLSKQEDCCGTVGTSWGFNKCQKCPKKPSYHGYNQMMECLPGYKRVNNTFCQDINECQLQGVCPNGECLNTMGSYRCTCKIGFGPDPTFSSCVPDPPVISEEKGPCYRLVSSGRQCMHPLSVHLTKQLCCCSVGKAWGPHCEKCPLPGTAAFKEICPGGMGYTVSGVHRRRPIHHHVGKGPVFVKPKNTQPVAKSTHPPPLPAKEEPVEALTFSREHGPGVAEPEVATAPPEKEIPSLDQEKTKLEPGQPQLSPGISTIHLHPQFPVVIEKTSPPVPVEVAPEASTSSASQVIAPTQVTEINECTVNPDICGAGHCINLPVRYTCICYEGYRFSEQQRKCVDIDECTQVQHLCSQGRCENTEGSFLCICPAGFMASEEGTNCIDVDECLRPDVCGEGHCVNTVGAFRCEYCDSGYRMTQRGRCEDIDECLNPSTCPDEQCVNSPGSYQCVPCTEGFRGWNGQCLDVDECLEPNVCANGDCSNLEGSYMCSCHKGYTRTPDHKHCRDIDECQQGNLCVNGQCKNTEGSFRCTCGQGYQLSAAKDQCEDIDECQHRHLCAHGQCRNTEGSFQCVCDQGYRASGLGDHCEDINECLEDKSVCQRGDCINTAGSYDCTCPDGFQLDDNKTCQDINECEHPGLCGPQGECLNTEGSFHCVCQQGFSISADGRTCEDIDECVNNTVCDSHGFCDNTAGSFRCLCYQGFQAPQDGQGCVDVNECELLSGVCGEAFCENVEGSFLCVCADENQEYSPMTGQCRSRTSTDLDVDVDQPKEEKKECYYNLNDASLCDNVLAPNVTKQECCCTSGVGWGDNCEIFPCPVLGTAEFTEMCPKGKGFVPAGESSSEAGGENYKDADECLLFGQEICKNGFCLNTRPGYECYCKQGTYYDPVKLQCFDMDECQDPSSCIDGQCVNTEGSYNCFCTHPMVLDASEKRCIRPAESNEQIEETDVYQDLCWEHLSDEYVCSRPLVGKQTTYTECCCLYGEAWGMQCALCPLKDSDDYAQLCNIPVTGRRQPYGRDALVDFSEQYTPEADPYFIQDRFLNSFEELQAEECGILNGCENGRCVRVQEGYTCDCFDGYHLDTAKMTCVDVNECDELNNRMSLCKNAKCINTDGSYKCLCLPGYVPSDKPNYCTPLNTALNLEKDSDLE
Chain of hLTBP1-proTGFβ1 complex made by transfected cells (cell-based potency assay) (P01137 30-390, chain 2 of 2): as the sequence (P01137 30-390, chain 2 of 2) above
T10 sequence (P01137 other isoform, or with tags, fused parts or gaps): as the sequence (P01137 30-390, chain 2 of 2) above, with C4S counted along it

B1: Ab6 (antibody, human IgG4 S228P, kappa, V domains shown)
VH: EVQLVESGGGLVQPGGSLRLSCTASGFTFSSFSMDWVRQAPGKGLEWVSYISPSADTIYYADSVKGRFTISRDNAKNTLYLQMNSLRAEDTAVYYCARGVLDYGDMLMPWGQGTLVTVSS
VL: DIQMTQSPSSLSASVGDRVTITCQASQDITNYLNWYQQKPGKAPKLLIYDASNLETGVPSRFSGSGSGTDFTFTISSLQPEDIATYYCQQADNHPPWTFGGGTKVEIKR
IC50 (read off the curve) [1]: ~0.02 nM | IC50, reporter cell assay of TGFβ1 activation [2]: 2.74 nM | IC50, reporter cell assay of TGFβ1 activation [3]: 0.324 nM | binding result [4]: no binding | Kd [5]: 0.018 nM | Kd [6]: 0.029 nM | Kd [7]: 0.048 nM | Kd [8]: 0.028 nM | Kd [9]: 0.024 nM | Kd [10]: 0.063 nM | Kd [11]: 0.021 nM | Kd [12]: 0.027 nM | binding result (human proTGFβ1 C4S): binds | binding result [13]: no binding | binding result [14]: no binding | IC50 (read off the curve) [15]: ~0.03 nM | IC50 (read off the curve) [16]: ~0.03 nM
